Paper doi:10.1101/2025.05.22.655646 (bioRxiv, 2025)

Biological target: T1, eOD-GT8 (Human immunodeficiency virus 1, …)
T1 construct: also called engineered outer domain germline-targeting version 8; eOD-GT8 monomer
Experiment: SPR; monoclonal IgGs and eOD-GT8; as previously described (ref. 19)
Details: both partners purified

B1: G001_gp1_V10_VRC01c_2021-0087 (antibody, V domains shown)
VH: QVQLVQSGAEVKKPGASVKVSCKASGYTFTGNYIHWVRQAPGQGLEWVGWLNPNSGGTNYAQQFQGRVTMTRDTSISTAYMELNRLRSDDTAVFYCARGLWQWEFRYWGQGTLVTVSS
VL: DIVLTQSPGTLSLSPGERATLSCRASQSVSSSNLAWYQQKPGQAPRLLIYGASSRATGIPDRFSGSGSGTDFTLTISRLEPEDCAVYYCQQYEGFGGGTKVEIK
notes: also called G001-0087
Kd: 0.15 nM

B2: G001_LD_07A_VRC01c_58 (antibody, V domains shown)
VH: QVQLVQSGAEVRKPGASVKVSCKASGYTFTDYYIHWVRQAPGQGLEWMGWINPNSGGTNYAQKFQGWVTMTRDTSISTAHMELRRLRSDDRAVYYCARGVVHSGFEFGYWGQGTLVTVSS
VL: DIQMTQSPSTLSASVGDRVTITCRASQSISNWLAWYQQKPGKAPKLLIYKASSLESGVPSRFSGSGSGTEFTLTISSLQPDDFATYYCQQYETFGQGTKVEIK
notes: also called G001-58
Kd: 0.437 nM

B3: G001_LD_07A_VRC01c_59 (antibody, V domains shown)
VH: QVQLVQSGAEVKKPGTSVKVSCKASEYTFTGYYVHWVRQAPGQGLEWMGWINPNSGGTNYAQKFQGWVTMTRDTSISTAYMELSRLKSDDTAVYYCARSDYISSWYFGYWGQGTLVTVSS
VL: EIVMTQSPATLSVSPGERATLSCRASQSVSSNLAWYQQKPGQAPRLLIYGTSTRATGIPARFSGSGSGTEFTLTISSLQSEDFAVYYCQQYETFGQGTKVEIK
notes: also called G001-59
Kd: 1.76 nM

B4: G001_gp1_V10_VRC01c_179 (antibody, V domains shown)
VH: QVQLVQSGADVKKPGASVKVSCKASGYTFTDYYMHWVRQAPGQGLEWMGWINPNSGGTNYAQKFQDRVTMTRDTSVSTAYMEVSGLRSDDTAVYYCARIKLCNGGSCNWSLGYWGQGSLVTVSS
VL: DIQMTQSPSSLSASVGDRVTITCQASQDISNYLNWYQQKPGKAPKLLIYGASNLETGVPSRFSGSGSGTDFTFTISSLQPEDIATYYCQQYEFFGPGTKVDIK
notes: also called G001-179
Kd: 0.13 nM
